These results are taken from article doi:10.1101/091884 (bioRxiv, 2016).

Common to all, as to test: SEC + other: SDS-PAGE
Series [1] has as its target B. amyloliquefaciens BslA_(42-181) (Bacillus amyloliquefaciens FZB42).
Series [2] addresses B. licheniformis BslA_(40-17g) (Bacillus licheniformis DSM13).
Series [3] deals with B. pumilus BslA_(37-177) (Bacillus pumilus SAFR-032).
The series “SEC + other: SDS-PAGE” concerns the molecule itself.

Regarding “B. amyloliquefaciens BslA_(42-181) (domain or fragment)”, the stoichiometry N in series [1] was 2.
As to “B. licheniformis BslA_(40-17g) (domain or fragment)”, in series [2], the stoichiometry N worked out at 2.
Consider “B. pumilus BslA_(37-177) (domain or fragment)”, for which the stoichiometry N in series [3] turned out to be 2.

B1: B. subtilis BslA_(42-181) (domain or fragment, Bacillus subtilis, UniProt P71014 42-181, looked up)
chain: MRTQSTASLFATITGASKTEWSFSDIELTYRPNTLLSLGVMEFTLPSGFTANTKDTLNGNALRTTQILNNGKTVRVPLALDLLGAGEFKLKLNNKTLPAAGTYTFRAENKSLSIGNKFYAEASIDVAKRSTPPTQPCGCN
B1: the “stoichiometry N” value in the series “SEC + other: SDS-PAGE” came to 2.
